Measurements from patent US20230365685A1 (SUZHOU NEOLOGICS BIOSCIENCE, published 2023).

What was measured:
[1] = target: T1, human TIM-3 recombinant protein (TIM-3-his) (human, UniProt Q8TDQ0 22-202); test: biosensor (HFC sensor, Probe Life): antibody captured, TIM-3-his in solution, 1:1 fit;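 further: antigen applied as a twofold dilution series, association and dissociation phases recorded, KD obtained as koff divided by kon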
T1 construct: also called TIM-3 protein; not shown: His tag

[2] = target: T2, biotinylated human TIM-3 (human, UniProt Q8TDQ0 22-202, limits assumed, biotinylated (sites not given)); test: competition ELISA: antibody coated, biotinylated human TIM-3 preincubated with competitor 3E6
[3] = target: T2, biotinylated human TIM-3; test: competition ELISA: antibody coated, biotinylated human TIM-3 preincubated with competitor 4H2
Method: (§1) Antibodies were diluted with PBS to 2 μg/mL. 50 μl antibody solution was added to each well of the 96-well plate, which was incubated at 4° C. overnight. The plate was then washed with wash buffer (0.05% Tween in PBS) three times and blocked with 5% skim milk in PBS at 37° C. for two hours. The biotinylated human TIM-3 and antibodies were preincubated at room temperature for half an hour and then added to the plate. The plate was then incubated at room temperature for 1 hour and washed three times with wash buffer. 50 μl streptavidin HRP (1:1000, BD) was then added to each well at room temperature and incubated for about 1 hour. 50 μl of TMB substrate was added to each well, and the reaction was then terminated with 50 μl HCL after 1-5 minutes. Absorbance was read at 450 nm and IC50 value was analyzed.

[4] = target: T2, biotinylated human TIM-3; test: competition ELISA: antibody coated, biotinylated human TIM-3 preincubated with competitor 16H1
Method: as §1

[5] = target: T2, biotinylated human TIM-3; test: competition ELISA: antibody coated, biotinylated human TIM-3 preincubated with competitor 19D11
Method: as §1

[6] = target: T2, biotinylated human TIM-3; test: competition ELISA: antibody coated, biotinylated human TIM-3 preincubated with competitor CH 10#
Method: as §1

[7] = target: T2, biotinylated human TIM-3; test: competition ELISA: antibody coated, biotinylated human TIM-3 preincubated with competitor CH 11#
Method: as §1

[8] = target: T2, biotinylated human TIM-3; test: competition ELISA: antibody coated, biotinylated human TIM-3 preincubated with competitor MBG453
Method: as §1

[9] = target: T2, biotinylated human TIM-3; test: competition ELISA: antibody coated, biotinylated human TIM-3 preincubated with competitor TSR022
Method: as §1

[10] = target: T3, mouse TIM-3 (mouse, UniProt Q8VIM0 20-281); test: flow cytometry on cells stably expressing mouse TIM-3, PE-labelled secondary antibody; concentration not shown
T3 construct: whole, on cells

[11] = target: T4, cynomolgus TIM-3 (cynomolgus, UniProt A0A2K5U3G7 22-294); test: flow cytometry on 293T cells stably expressing cynomolgus TIM-3, serially diluted antibody, PE-labelled secondary antibody [upper panel]
T4 construct: whole, on cells
T4 sequence: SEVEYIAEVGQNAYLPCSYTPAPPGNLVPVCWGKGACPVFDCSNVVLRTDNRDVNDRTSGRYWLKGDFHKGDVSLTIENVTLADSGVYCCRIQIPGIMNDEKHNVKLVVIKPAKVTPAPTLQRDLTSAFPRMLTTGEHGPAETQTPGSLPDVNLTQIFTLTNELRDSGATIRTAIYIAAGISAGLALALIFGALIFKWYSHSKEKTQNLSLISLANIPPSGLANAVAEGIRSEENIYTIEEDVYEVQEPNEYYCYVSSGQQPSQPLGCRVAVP
Method: (§2) Briefly, serially diluted anti-TIM-3 antibodies were incubated with cell lines stably expressing mouse TIM-3 or cynomolgus TIM-3 (10⁵ cells/well). Then, PE-labelled mouse anti-human IgG antibody (Biolegend) was used as detection antibody. A flow cytometer (Canto II, BD, USA) was used to measure fluorescence.

[12] = target: T5, human TIM-3 (human, UniProt Q8TDQ0 22-202, limits assumed); test: blocking assay, flow cytometry: antibody preincubated with recombinant human TIM-3-Fc, then binding of TIM-3-Fc to apoptotic 293T cells; blocked ligand: phosphatidylserine
T5 construct: also called HAVCR2; target antigen
Method: After the cells were washed once, PE-labelled goat anti-mouse IgG antibody was added and incubated for 1 hour at 4° C. Finally, samples were washed once with 1× Annexin-V buffer and fluorescence was measured with a flow cytometer (Canto II, BD, USA).

[13] = target: T4, cynomolgus TIM-3; test: flow cytometry on 293T cells stably expressing cynomolgus TIM-3, serially diluted antibody, PE-labelled secondary antibody [lower panel]
Method: as §2
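Wherever inhibit percentage is given: plate-coated antibody at 2 µg/mL.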

B1: 16H1 (antibody, V domains shown)
VH: QVQLQQSGPQLVRPGSSVQISCKTSGYSFTSYLMHWVRQRPGQGLEWIGSIDPSDSEISLNQKFMDKATLTVDKSSSTANMQFSSPTSEDSAVYFCARDFGYVAWFVYWGQGTLVTVSA
VL: DIVMTQSHKFMSTSIEDRVSITCKASQDVSAAVAWYQQKPGQTPKLLIYSTFYRYIGVPDRFTGSGSGTDFTFTITSVQAEDLAVYFCQQHYSVPWTFGGGTKLEIK
notes: also called I6H1
[1]
  Kd: 0.168 nM
  koff: 0.000218 s⁻¹
  kon: 1.3e+06 M⁻¹ s⁻¹
[2]
  inhibit percentage: 60%
[3]
  inhibit percentage: 64.7%
[4]
  inhibit percentage: 100%
[5]
  inhibit percentage: 0.06%
[6]
  inhibit percentage: 15.1%
[7]
  inhibit percentage: 8.26%
[8]
  inhibit percentage: 81.7%
[9]
  inhibit percentage: 4.02%
[10]
  binding result: no binding
[11]
  EC50 (read off the curve): ~0.04 µg/mL
[12]
  IC50 (read off the curve): ~2 µg/mL

B2: 39D1 (antibody, V domains shown)
VH: QVQLQQSGAELMKPGASVKISCKATGYTFSSSYWIEWVKQRPGHGLEWIGEILPGSGSINYNEKFKGKATFTADTSSNTVYMQLSSLTSDDSAVYYCARSYYYVMDYWGQGTSVTVSS
VL: QIVLTQSPAIMSASPGEMLTITCSASSSVRFMHWFQQKPGTSPKLWIYSTSNLASGVPARFSGSGSGTSYSLTVSRMEAEDAATYYCQQRSSYPPTFGGGTKLEIK
[1]
  Kd: 1.13 nM
  koff: 0.00141 s⁻¹
  kon: 1.25e+06 M⁻¹ s⁻¹
[13]
  EC50 (read off the curve): ~0.02 µg/mL

B3: 3F2 (antibody, V domains shown)
VH: EVQLQQSGPELVKTGSSVKISCKASGYSFTGYYMHWVRQSPGKSLEWIGYISCYNGATNYNQKFKGKATFTVDTYSSTAYMQFDSLASEDSAVYYCVRDYYLSVMDYWGQGTSVTVSS
VL: NIMMTQSPSSLAVSAGEKVTMSCKSSQSVLYSSNQKNYLAWYQQKPGQSPKLLIYWASFRESGVPDRFTGSGSGTDFTLTISSVQAEDLAVYYCHQSLSSYTFGGGTKLEIK
[1]
  Kd: 1.11 nM
  koff: 0.00066 s⁻¹
  kon: 596000 M⁻¹ s⁻¹
[13]
  EC50 (read off the curve): ~0.4 µg/mL
